Measured values published in article doi:10.1101/2025.04.08.647717.
Blank lines part the entries; values can stand above or below the substance they belong to.

Legend:
[1] = molecular target: WT EaeSPARDA (binary DREN-APAZ:Ago monomer) (Enhydrobacter aerosaccus); experiment: SEC-MALS
[2] = molecular target: XauE37A (XauSPARDA with E37A in the DREN domain of DREN-APAZ) (Xanthobacter autotrophicus strain Py2); experiment: SEC-MALS
[3] = molecular target: XauDREN-APAZ protein (Xanthobacter autotrophicus strain Py2); experiment: cryo-EM structure
[4] = molecular target: WT XauSPARDA (binary DREN-APAZ:Ago monomer) (Xanthobacter autotrophicus strain Py2); experiment: SEC-MALS
[5] = molecular target: XauHSH (XauSPARDA whose XauAgo carries a 29 aa HSH-tag at the C-terminus) (Xanthobacter autotrophicus strain Py2); experiment: SEC-MALS
[6] = molecular target: EaeE37A (EaeSPARDA with E37A in the DREN domain of DREN-APAZ) (Enhydrobacter aerosaccus); experiment: SEC-MALS

stoichiometry N [1]: 2
Substance: WT EaeSPARDA (binary DREN-APAZ:Ago monomer) (complex)

stoichiometry N [2]: 2
Substance: XauE37A (XauSPARDA with E37A in the DREN domain of DREN-APAZ) (complex)

stoichiometry N [3]: 4
Substance: XauDREN-APAZ protein (natural protein)

stoichiometry N [4]: 2
Substance: WT XauSPARDA (binary DREN-APAZ:Ago monomer) (complex)

stoichiometry N [5]: 2
Substance: XauHSH (XauSPARDA whose XauAgo carries a 29 aa HSH-tag at the C-terminus) (complex)

stoichiometry N [6]: 2
Substance: EaeE37A (EaeSPARDA with E37A in the DREN domain of DREN-APAZ) (complex)
